According to patent publication US7164008B2, “Isolated complexes of endotoxin and MD-2” (priority 2003, dated 2007):

Target: T1, TLR4 (Homo sapiens, UniProt O00206+Q9Y6Y9)
T1 construct: host or cells: HEK293 stably transfected with TLR4 (HEK/TLR4)
Experiment: HEK cell activation assay: extracellular IL-8 by ELISA
Format: cell-based
From the text: Conditioned insect cell culture medium containing soluble, polyhistidine-tagged recombinant wild-type (wt) or C95Y mutant MD-2 were generated according to the method of Viriyakosol et al. (2001). A human embryonic kidney cell line (HEK293) that stably expresses TLR4 (HEK/TLR4), but lacks both CD14 and MD-2 (Yang et al., 2000), was used to evaluate the effect of MD-2 on the ability of lipooligosaccharide (LOS) to interact with TLR4 and promote activation.
FIG. 1 depicts the expression and bioactivity of recombinant MD-2-His6. FIGS. 1A and 1B depict SDS-PAGE immunoblots of control culture medium (FIG. 1A, lane 1) or medium from HiFive cells infected with recombinant baculovirus encoding wt (FIG. 1A, lane 2; FIG. 1B, lanes 1–3) or C95Y MD-2 (FIG. 1B, lane 4). MD-2 was detected using anti-(His)4 antibody. All samples represent 1 μl of culture medium except B, lanes 2 and 3, which represent 0.3 and 0.1 μl and A, lane 3, which represents molecular weight markers. In FIG. 1C, HEK/TLR4 cells were incubated in HEPES-buffered HBSS+/0.1% albumin with [^14C]-LOSagg (3 ng/ml)+/−LBP (30 ng/ml) and/or (60 μl) culture medium containing wt MD-2 (MD-2) (open bars); LOSagg+LBP and sCD14 (250 ng/ml)+/−wt (closed bars) or C95Y “MD-2” (striped bars), or [^14C]-LOS-sCD14 (2 ng LOS/ml)+/−wt or C95Y “MD-2” (closed bars). After overnight incubation, extracellular IL-8 was assayed by ELISA. In FIG. 1D, HEK/TLR4 cells were incubated with increasing amounts of wt (▪) or C95Y (◯) MD-2+[^14C]-LOS-sCD14 (2 ng/ml) and cell activation measured. Results shown are from one experiment (duplicate samples) representative of four independent experiments.
In FIG. 2, a bioactive complex (Mr˜25,000) containing MD-2 and [^14C]-LOS is formed by incubation of [^14C]-LOS-sCD14 with wt, but not C95Y, MD-2. In FIG. 2A, dialyzed control insect cell medium (◯) or medium containing wt (♦) or C95Y ( ? ) MD-2 was incubated for 30 min, 37° C. with (1:1 vol/vol) [^14C]-LOS-sCD14 in HBSS+, 10 mM HEPES and chromatographed on Sephacryl S100. Column fractions were analyzed for [^14C]-LOS. Identical results were obtained in analytical (5 ng [^14C]-LOS/ml+200 μl culture medium) or more preparative runs (reagents concentrated 20×). In FIG. 2B, peak fractions (Mr˜25,000) from treatment of [^14C]-LOS-sCD14 with wt MD-2 (FIG. 2A) were re-chromatographed on S100 in HBSS+, 10 mM HEPES without HSA; recovery of [^14C]-LOS was >80%. In FIG. 2C, HEK (□) or HEK/TLR4 (▪) were incubated overnight with the indicated amounts of LOS added as purified Mr˜25,000 (LOS-MD-2) complex. Cell activation was measured by IL-8 accumulation. Results shown correspond to one experiment, in duplicate, representative of three similar experiments. FIGS. 2D and 2E depict adsorption and elution of bioactive Mr˜25,000 complex to HisBind resin. Peak fractions of the purified complex (FIG. 2B; 10 ng [^14C]-LOS) were dialyzed against PBS and incubated with HisBind resin (0.125 ml) for 1 hr at 25° C. and processed as described in Methods. Non-adsorbed (Flow-thru) and adsorbed material eluted with 200 mM imidazole were precipitated with trichloroacetic acid to concentrate sample for SDS-PAGE/immunoblot analysis. […]
Purified [^14C]-LOSagg or [^14C]-LOS-sCD14 (3 ng LOS/ml)+/−indicated proteins (30 ng/ml LBP, 250 ng/ml sCD14, 60 μl culture medium) were incubated at 37° C. for 30 min. After this incubation, samples were analyzed by gel filtration chromatography to monitor formation of [^14C]-LOS-MD-2 and by incubation with HEK/TLR4 cells to measure cell activation. […]

T1 sequence (O00206 24-839, one chain of several): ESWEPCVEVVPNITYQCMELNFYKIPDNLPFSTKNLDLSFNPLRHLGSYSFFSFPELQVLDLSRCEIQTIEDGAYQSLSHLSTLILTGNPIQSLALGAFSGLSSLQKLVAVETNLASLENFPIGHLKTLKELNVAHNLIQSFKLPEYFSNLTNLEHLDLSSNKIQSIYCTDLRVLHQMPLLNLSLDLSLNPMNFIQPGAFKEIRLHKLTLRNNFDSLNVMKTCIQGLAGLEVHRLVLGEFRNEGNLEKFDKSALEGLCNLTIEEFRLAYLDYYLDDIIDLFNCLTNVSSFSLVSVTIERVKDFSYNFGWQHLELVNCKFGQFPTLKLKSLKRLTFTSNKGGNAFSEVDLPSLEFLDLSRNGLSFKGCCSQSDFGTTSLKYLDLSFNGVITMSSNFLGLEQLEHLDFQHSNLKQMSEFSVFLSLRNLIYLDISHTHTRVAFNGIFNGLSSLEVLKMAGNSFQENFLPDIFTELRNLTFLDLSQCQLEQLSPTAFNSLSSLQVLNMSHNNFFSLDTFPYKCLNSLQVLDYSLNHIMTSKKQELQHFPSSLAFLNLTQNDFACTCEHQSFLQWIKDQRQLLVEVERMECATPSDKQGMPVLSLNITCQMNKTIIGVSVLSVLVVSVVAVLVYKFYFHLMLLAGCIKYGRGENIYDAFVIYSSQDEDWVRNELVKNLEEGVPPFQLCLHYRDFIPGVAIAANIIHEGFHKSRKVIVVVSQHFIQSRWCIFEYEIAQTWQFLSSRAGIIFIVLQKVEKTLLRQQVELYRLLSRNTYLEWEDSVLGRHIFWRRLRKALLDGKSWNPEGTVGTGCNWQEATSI

B1: wt MD-2: soluble polyhistidine-tagged recombinant wild-type MD-2 in conditioned insect cell culture medium (protein)
chain: QKQYWVCNSSDASISYTYCDKMQYPISINVNPCIELKRSKGLLHIFYIPRRDLKQLYFNLYITVNTMNLPKRKEVICRGSDDDYSFCRALKGETVNTTISFSFKGIKFSKGKYKCVVEAISGSPEEMLFCLEFVILHQPNSNHHHHHH
MD-2 concentration producing maximum cell activation (HEK/TLR4 with [^14C]-LOS-sCD14 (2 ng/ml)): 30 ng/mL
activation of HEK/TLR4 cells by LOS-sCD14 (or LOSagg+LBP+sCD14) on addition of medium containing MD-2 (IL-8 release, LOS-sCD14 2 ng LOS/ml): robust activation
inhibition of activation of HEK/TLR4 by [^14C]-LOS-MD-2 by added MD-2 ([^14C]-LOS-MD-2 0.3 ng/ml, increasing amounts of conditioned medium): dose-dependent inhibition
